Test [1] addresses T1, FcγRIIIA (soluble receptor used as analyte in the BIAcore runs) (human, UniProt P08637 17-208). Kind of test: BIAcore run 1, ratio of isotherm KD values against wild type Vitaxin®. On the technique in general: Surface plasmon resonance follows binding to a sensor surface in real time, without labels.
Test [2] concerns the target T1, FcγRIIIA (soluble receptor used as …). Kind of test: BIAcore run 2, IgG immobilized, soluble FcγRIIIA, steady-state isotherm.
Test [3] shares this target. Kind of test: BIAcore run 1, IgG immobilized, soluble FcγRIIIA, Scatchard plot.
Test [4] shares this target. Kind of test: BIAcore run 2, IgG immobilized, soluble FcγRIIIA, Scatchard plot.
Test [5] has the same target. Kind of test: BIAcore run 2, ratio of isotherm KD values against wild type Vitaxin®.
Test [6] has the same target. Kind of test: BIAcore run 1, IgG immobilized, soluble FcγRIIIA, steady-state isotherm.

T1 sequence (P08637 17-208): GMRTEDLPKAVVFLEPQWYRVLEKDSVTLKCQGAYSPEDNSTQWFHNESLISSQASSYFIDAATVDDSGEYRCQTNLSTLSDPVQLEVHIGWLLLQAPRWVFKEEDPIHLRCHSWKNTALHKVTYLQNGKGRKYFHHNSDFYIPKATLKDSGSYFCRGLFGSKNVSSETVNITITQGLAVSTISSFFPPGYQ

B1: Vitaxin®-1M (Vitaxin® Fc variant I332E, IgG1) (antibody)
heavy: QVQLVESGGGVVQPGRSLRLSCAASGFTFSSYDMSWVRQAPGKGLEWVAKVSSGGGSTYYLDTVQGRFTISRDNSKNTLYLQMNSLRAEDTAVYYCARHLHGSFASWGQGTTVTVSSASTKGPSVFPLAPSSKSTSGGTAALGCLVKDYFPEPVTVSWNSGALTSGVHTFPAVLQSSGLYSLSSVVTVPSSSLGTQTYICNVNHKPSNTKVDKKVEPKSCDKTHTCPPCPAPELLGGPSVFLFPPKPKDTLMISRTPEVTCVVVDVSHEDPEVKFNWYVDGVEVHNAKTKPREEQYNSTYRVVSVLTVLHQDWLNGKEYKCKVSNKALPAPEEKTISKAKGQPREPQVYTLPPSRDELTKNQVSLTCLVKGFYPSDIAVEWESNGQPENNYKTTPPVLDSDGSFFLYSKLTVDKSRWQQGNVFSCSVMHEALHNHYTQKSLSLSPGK
VL: EIVLTQSPATLSLSPGERATLSCQASQSISNFLHWYQQRPGQAPRLLIRYRSQSISGIPARFSGSGSGTDFTLTISSLEPEDFAVYYCQQSGSWPLTFGGGTKVEIK
notes: Full length IgG1 with I332E in the Fc; expressed in 293H/HEK293 cells; also called I332E Fc variant; Vitaxin® Fc (I332E) variant
One may read the Kd as the constant that tells how readily two partners part at equilibrium. High values mean a looser complex, low ones a tighter complex. As to B1, the “Fold increase over WT” value in test [1] came to 6.5 fold; in test [5] it was 7 fold. Besides, the Kd in test [2] was 1.28 µM; in test [3], 0.458 µM; in test [4], 1.22 µM; in test [6] it was 0.458 µM.

B2: Vitaxin®-3M (Vitaxin® Fc variant S239D/A330L/I332E, IgG1) (antibody)
heavy: QVQLVESGGGVVQPGRSLRLSCAASGFTFSSYDMSWVRQAPGKGLEWVAKVSSGGGSTYYLDTVQGRFTISRDNSKNTLYLQMNSLRAEDTAVYYCARHLHGSFASWGQGTTVTVSSASTKGPSVFPLAPSSKSTSGGTAALGCLVKDYFPEPVTVSWNSGALTSGVHTFPAVLQSSGLYSLSSVVTVPSSSLGTQTYICNVNHKPSNTKVDKKVEPKSCDKTHTCPPCPAPELLGGPDVFLFPPKPKDTLMISRTPEVTCVVVDVSHEDPEVKFNWYVDGVEVHNAKTKPREEQYNSTYRVVSVLTVLHQDWLNGKEYKCKVSNKALPLPEEKTISKAKGQPREPQVYTLPPSRDELTKNQVSLTCLVKGFYPSDIAVEWESNGQPENNYKTTPPVLDSDGSFFLYSKLTVDKSRWQQGNVFSCSVMHEALHNHYTQKSLSLSPGK
VL: EIVLTQSPATLSLSPGERATLSCQASQSISNFLHWYQQRPGQAPRLLIRYRSQSISGIPARFSGSGSGTDFTLTISSLEPEDFAVYYCQQSGSWPLTFGGGTKVEIK
notes: I332E is used here; also called Vitaxin S239D/A330L/I332E
For B2, in test [2], binding was characterised by a dissociation constant (Kd) of 0.114 µM.

Source of the values: patent US20060039904A1 (AstraZeneca / MedImmune, published 2006).
